Assay results published in patent US20110070243A1 (published 2011).

T1: rhesus CD79b (rhesus monkey, UniProt H9ZFT8 30-231)
T1 construct: whole, on cells; also called rhesus monkey CD79b
T1 sequence: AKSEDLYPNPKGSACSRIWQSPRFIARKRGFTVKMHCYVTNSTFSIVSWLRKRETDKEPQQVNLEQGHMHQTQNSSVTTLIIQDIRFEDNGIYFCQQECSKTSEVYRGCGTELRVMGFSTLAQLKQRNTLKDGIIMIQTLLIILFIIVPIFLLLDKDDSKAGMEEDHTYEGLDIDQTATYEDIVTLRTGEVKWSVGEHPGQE

T2: cyno CD79b (TAHO40) (cynomolgus monkey)
T2 construct: Target on BJAB-cyno CD79b cells (BJAB transfected with cyno CD79b) and on cynomolgus B cells; also called cynomolgus CD79b; PRO283627
T2 chain: T1 sequence

T3: human CD79b (TAHO5) (human, UniProt P40259 29-229)
T3 construct: also called PRO36249; Igbeta
T3 sequence: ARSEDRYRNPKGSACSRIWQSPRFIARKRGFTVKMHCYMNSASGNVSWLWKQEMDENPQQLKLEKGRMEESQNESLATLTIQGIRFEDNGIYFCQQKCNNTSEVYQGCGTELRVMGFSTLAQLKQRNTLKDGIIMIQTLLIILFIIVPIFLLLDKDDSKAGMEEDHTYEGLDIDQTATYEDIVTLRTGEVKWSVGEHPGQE

T4: cyno CD79b (TAHO40) 21mer peptide (cynomolgus monkey)
T4 construct: also called cyno CD79b (TAHO40) 20 mer peptides
T4 peptide: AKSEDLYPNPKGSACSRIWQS

T5: human CD79b (TAHO5) 21mer peptide (human)
T5 peptide: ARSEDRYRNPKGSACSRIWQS

B1: anti-human CD79b (TAHO5) antibody SN8 (antibody, V domains shown)
VL: DIVLTQSPASLAVSLGQRATISCKASQSVDYDGDSFLNWYQQKPGQPPKLFIYAASNLESGIPARFSGSGSGTDFTLNIHPVEEEDAATYYCQQSNEDPLTFGAGTELELKR
VH: EVQLQQSGAELMKPGASVKISCKATGYTFSSYWIEWVKQRPGHGLEWIGEILPGGGDTNYNEIFKGKATFTADTSSNTAYMQLSSLTSEDSAVYYCTRRVPVYFDYWGQGTSVTVSS
notes: Murine monoclonal antibody, commercial (Biomeda, BD, Ancell) or from the Roswell Park hybridoma; also called anti-human CD79b (SN8)
B2: anti-human-CD79b-2F2 (antibody, V domains shown)
VH: QVQLQQPGAELVRPGASVKLSCKASGYTFTSYWMNWVKQRPGQGLEWIGMIDPSDSETHYNHIFKDKATLTVDKSSSTAYLQLSSLTSEDSAVYYCARNLYLWGQGTSVTVSL
VL: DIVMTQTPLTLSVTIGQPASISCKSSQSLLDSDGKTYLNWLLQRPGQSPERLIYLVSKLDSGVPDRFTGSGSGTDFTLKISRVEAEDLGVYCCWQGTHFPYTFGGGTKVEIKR
notes: Murine hybridoma monoclonal antibody; also called 2F2.20.1; anti-human CD79b (TAHO5) (2F2)
B3: anti-cyno-CD79b-10D10 (antibody, V domains shown)
VH: EVQLQESGPGLVKPSQSLSLTCTVTGYSITSDYAWNWIRQFPGNKLEWMGNIWYSGSTTYNPSLKSRISITRDTSKNQFFLQLNSVTSEDTATYYCSRMDFWGQGTTLTVSS
VL: DIVLTQSPPSLAVSLGQRATISCRASESVDSYGKTFMHWHQQKPGQPPKLLIYRVSNLESGIPARFSGSGSRTDFTLTINPVEADDVATYYCQQSNEDPFTFGGGTKLEIKR
notes: Murine hybridoma monoclonal antibody; also called 10D10.3; ATCC PTA-7715

Tests used:
rhesus CD79b = biological target: T1, rhesus CD79b; assay: staining of rhesus monkey B cells; method not detailed
cyno CD79b (TAHO40) [1] = biological target: T2, cyno CD79b (TAHO40); assay: staining of cynomolgus monkey B cells; method not detailed
human CD79b (TAHO5) = biological target: T3, human CD79b (TAHO5); assay: Scatchard analysis on BJAB-cyno CD79b cells (which also express human CD79b)
[2] = biological target: T4, cyno CD79b (TAHO40) 21mer peptide; assay: peptide competition: antibody pre-incubated with the cyno peptide, then FACS staining of BJAB cells
cyno CD79b (TAHO40) [3] = biological target: T2, cyno CD79b (TAHO40); assay: Scatchard analysis on BJAB-cyno CD79b cells
[4] = biological target: T5, human CD79b (TAHO5) 21mer peptide; assay: peptide competition: antibody pre-incubated with the human 21mer peptide, then FACS staining of cells

Row | Binder | binding result (rhesus CD79b) | binding result (cyno CD79b (TAHO40) [1]) | Kd (human CD79b (TAHO5)) | binding result [2] | Kd (cyno CD79b (TAHO40) [3]) | binding result [4]
1 | B1 | no binding | no binding | 0.5 nM | no binding (tested: antibody:peptide 1:10) | – | –
2 | B2 | no binding | no binding | – | no binding (tested: antibody:peptide 1:10) | – | –
3 | B3 | – | – | – | – | 1 nM | no binding (tested: antibody:peptide 1:10)
